Here are results for 3 molecules from patent EP4610277A1 (Daiichi Sankyo Company, Limited, dated 2025).

In assay [1] the target is T1, KIR2DL1 (Fc, R&D system 1844-KR-050) (UniProt P43626 22-245).
T1 construct: Bought Fc-tagged protein
The experiment in a line: flow cytometry, tagged protein on scFv-K562 cells.

Assay [2] concerns the target T2, CD32a (Fc, R&D system 1330-CD-050) (UniProt P12318 36-218).
T2 sequence (looked up): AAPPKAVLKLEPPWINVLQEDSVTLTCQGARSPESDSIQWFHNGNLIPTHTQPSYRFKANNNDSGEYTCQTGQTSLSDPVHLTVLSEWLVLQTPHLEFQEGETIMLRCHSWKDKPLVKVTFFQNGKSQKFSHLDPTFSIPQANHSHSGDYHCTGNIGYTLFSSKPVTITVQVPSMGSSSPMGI
As to the kind of experiment: flow cytometry, tagged protein on scFv-K562 cells. Background: In flow cytometry, cells or beads pass a laser one at a time.

Assay [3] concerns the target T3, NKp30 (Fc, R&D system 1849-NK-025) (UniProt O14931 19-138, limits assumed).
T3 construct: Bought Fc-tagged protein
T3 sequence (looked up): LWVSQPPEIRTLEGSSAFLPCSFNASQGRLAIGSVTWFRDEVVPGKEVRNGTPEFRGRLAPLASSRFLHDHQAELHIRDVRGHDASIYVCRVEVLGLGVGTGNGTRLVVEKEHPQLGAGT
The experiment in a line: flow cytometry, tagged protein on scFv-K562 cells.

The target of assay [4] is T4, TIGIT (Fc, R&D system 9464-TG-050) (UniProt Q495A1 22-141).
T4 construct: Bought Fc-tagged protein
T4 sequence (looked up): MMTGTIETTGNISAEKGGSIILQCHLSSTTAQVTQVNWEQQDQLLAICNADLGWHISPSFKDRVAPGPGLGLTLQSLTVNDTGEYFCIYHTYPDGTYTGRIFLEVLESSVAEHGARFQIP
The experiment in a line: flow cytometry, tagged protein on scFv-K562 cells.

The target in assay [5] is T5, NKG2A (Fc, R&D system 10511-NK-050) (UniProt P26715 94-233, limits assumed).
T5 construct: Bought Fc-tagged protein
The experiment in a line: flow cytometry, tagged protein on scFv-K562 cells.

Assay [6] addresses CD16b (Fc, R&D system 1597-FC-050) (UniProt O75015 17-200, limits assumed). The experiment in a line: flow cytometry, tagged protein on scFv-K562 cells.
Assay [7] has as its target T6, NKp46 (Fc, R&D system 1850-NK-025) (UniProt O76036 22-258, limits assumed).
T6 construct: Bought Fc-tagged protein
The experiment in a line: flow cytometry, tagged protein on scFv-K562 cells.

The target in assay [8] is T7, NKp44 (Fc, R&D system 2249-NK-050) (UniProt O95944 22-190, limits assumed).
T7 construct: Bought Fc-tagged protein
T7 sequence (looked up): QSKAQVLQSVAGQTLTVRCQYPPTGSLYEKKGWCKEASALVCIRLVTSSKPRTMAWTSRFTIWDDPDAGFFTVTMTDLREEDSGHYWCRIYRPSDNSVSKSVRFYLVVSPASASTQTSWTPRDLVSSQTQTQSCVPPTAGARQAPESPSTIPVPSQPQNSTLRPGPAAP
The experiment in a line: flow cytometry, tagged protein on scFv-K562 cells.

The target of assay [9] is T8, KIR2DL5 (Fc, R&D system 6634-KR-050) (UniProt Q8N109 22-238, limits assumed).
T8 construct: Bought Fc-tagged protein
As to the kind of experiment: flow cytometry, tagged protein on scFv-K562 cells.

Assay [10] concerns the target T9, LILRB1 (Fc, R&D system 2017-T2-050) (UniProt Q8NHL6 24-458).
T9 construct: Bought Fc-tagged protein
As to the kind of experiment: flow cytometry, tagged protein on scFv-K562 cells.

Assay [11] deals with T10, KIR3DL3 (Fc, R&D system 10104-KR-050) (UniProt Q8N743 26-322, limits assumed).
T10 construct: Bought Fc-tagged protein
The experiment in a line: flow cytometry, tagged protein on scFv-K562 cells.

Assay [12] deals with KIR2DS3 (Fc, prepared in-house) (UniProt Q14952 22-245, limits assumed). As to the kind of experiment: flow cytometry, tagged protein on scFv-K562 cells.
Assay [13] deals with T11, recombinant human KIR3DS1/CD158e2 Fc chimera protein (4136-KR-050, R&D Systems) (human, UniProt Q14943 22-340, limits assumed).
T11 construct: Bought Fc chimera; also called soluble KIR3DS1; recombinant KIR3DS1
The experiment in a line: flow cytometry, tagged protein on scFv-K562 cells.

Assay [14] concerns the target T12, CD161 (Fc, R&D system 7448-CD-050) (UniProt Q12918 67-225).
T12 construct: Bought Fc-tagged protein
As to the kind of experiment: flow cytometry, tagged protein on scFv-K562 cells.

Assay [15] addresses T13, KIR3DL1 (Fc, R&D system 1225-KR-050) (UniProt P43629 22-340).
T13 construct: Bought Fc-tagged protein
The experiment in a line: flow cytometry, tagged protein on scFv-K562 cells.

For assay [16], the target named is CD16a (Fc, R&D system 4325-FC-050) (UniProt P08637 17-208). The experiment in a line: flow cytometry, tagged protein on scFv-K562 cells.
Assay [17] concerns the target T14, LILRB2 (His, R&D system 8429-T4-050) (UniProt Q8N423 22-458).
T14 construct: Bought His-tagged protein
As to the kind of experiment: flow cytometry, tagged protein on scFv-K562 cells.

The target of assay [18] is T15, NKG2E (Fc, R&D system 9759-NK-050) (UniProt Q07444 94-240, limits assumed).
T15 construct: Bought Fc-tagged protein
The experiment in a line: flow cytometry, tagged protein on scFv-K562 cells.

In assay [19] the target is T16, CD32b/c (Fc, R&D system 1875-CD-050) (UniProt P31994 46-217).
T16 sequence (looked up): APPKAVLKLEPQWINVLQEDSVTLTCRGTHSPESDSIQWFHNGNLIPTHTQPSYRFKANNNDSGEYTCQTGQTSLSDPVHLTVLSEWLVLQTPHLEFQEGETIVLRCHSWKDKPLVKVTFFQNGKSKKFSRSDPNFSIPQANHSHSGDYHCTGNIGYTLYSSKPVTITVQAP
The experiment in a line: flow cytometry, tagged protein on scFv-K562 cells.

Assay [20] addresses T17, NKG2D (Fc, R&D system 1299-NK-050) (UniProt P26718 78-216).
T17 construct: Bought Fc-tagged protein
T17 sequence (looked up): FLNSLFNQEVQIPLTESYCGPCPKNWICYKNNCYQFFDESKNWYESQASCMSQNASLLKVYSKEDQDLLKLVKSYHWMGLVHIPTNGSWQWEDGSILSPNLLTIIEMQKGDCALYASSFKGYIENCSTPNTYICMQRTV
The experiment in a line: flow cytometry, tagged protein on scFv-K562 cells.

Assay [21] concerns the target T18, KIR2DL4 (Fc, R&D system 2238-KR-050) (UniProt Q99706 24-242, limits assumed).
T18 construct: Bought Fc-tagged protein
The experiment in a line: flow cytometry, tagged protein on scFv-K562 cells.

In assay [22] the target is CD64 (Fc, R&D system 1257-FC-050) (UniProt P12314 16-288). The experiment in a line: flow cytometry, tagged protein on scFv-K562 cells.
Assay [23] has as its target T19, NKG2C (Fc, R&D system 138-NK-050) (UniProt P26717 94-231, limits assumed).
T19 construct: Bought Fc-tagged protein
As to the kind of experiment: flow cytometry, tagged protein on scFv-K562 cells.

Assay [24] has as its target T20, recombinant KIR2DS4 (extracellular domain-Fc-Avi, in-house) (human).
T20 construct: In-house; IL-2 signal peptide left out; also called soluble KIR2DS4
The experiment in a line: flow cytometry, KIR-Fc on scFv-K562 cells.

Assay [25] concerns the target T21, recombinant KIR2DS1 (extracellular domain-Fc-Avi, in-house) (human).
T21 construct: In-house; IL-2 signal peptide left out; also called soluble KIR2DS1
As to the kind of experiment: flow cytometry, KIR-Fc on scFv-K562 cells.

The target of assay [26] is T22, recombinant KIR2DS2 (extracellular domain-Fc-Avi, in-house) (human).
T22 construct: In-house; IL-2 signal peptide left out; also called soluble KIR2DS2
As to the kind of experiment: flow cytometry, KIR-Fc on scFv-K562 cells.

Assay [27] concerns the target T23, recombinant KIR3DL1 (extracellular domain-Fc-Avi, in-house) (human).
T23 construct: IL-2 signal peptide left out; also called soluble KIR3DL1
As to the kind of experiment: flow cytometry, KIR-Fc 0.1 µM on scFv-K562 cells.

For assay [28], the target named is T11, recombinant human KIR3DS1/CD158e2 Fc …. As to the kind of experiment: flow cytometry, KIR-Fc on scFv-K562 cells.
Assay [29] deals with T24, KIR2DL2 (22-225)-His, deglycosylated (human, UniProt P43627 22-225).
T24 construct: IL-2 signal peptide left out; treated with Protein Deglycosylation Mix II; also called recombinant KIR2DL2
As to the kind of experiment: size exclusion chromatography of the mixed proteins; complex then crystallised. For orientation: SEC sorts molecules by how far they enter the pores of the column.

T11 sequence (Q14943 22-340 limits assumed, change not shown): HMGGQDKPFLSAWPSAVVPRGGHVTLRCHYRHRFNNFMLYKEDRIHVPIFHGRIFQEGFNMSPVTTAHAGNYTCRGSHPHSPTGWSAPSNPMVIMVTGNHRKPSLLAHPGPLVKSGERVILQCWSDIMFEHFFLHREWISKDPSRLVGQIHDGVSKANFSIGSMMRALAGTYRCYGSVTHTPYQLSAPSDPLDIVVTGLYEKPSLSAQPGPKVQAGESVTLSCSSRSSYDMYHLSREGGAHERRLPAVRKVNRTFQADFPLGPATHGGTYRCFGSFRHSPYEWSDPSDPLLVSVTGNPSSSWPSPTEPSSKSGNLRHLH
Chain of CD16a (Fc, R&D system 4325-FC-050) (P08637 17-208 limits assumed): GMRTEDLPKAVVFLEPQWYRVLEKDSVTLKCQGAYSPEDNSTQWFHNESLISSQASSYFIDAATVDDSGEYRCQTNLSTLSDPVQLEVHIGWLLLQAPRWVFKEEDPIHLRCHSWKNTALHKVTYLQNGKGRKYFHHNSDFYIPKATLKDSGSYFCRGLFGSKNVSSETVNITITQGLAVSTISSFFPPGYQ
T10 sequence (Q8N743 26-322 limits assumed): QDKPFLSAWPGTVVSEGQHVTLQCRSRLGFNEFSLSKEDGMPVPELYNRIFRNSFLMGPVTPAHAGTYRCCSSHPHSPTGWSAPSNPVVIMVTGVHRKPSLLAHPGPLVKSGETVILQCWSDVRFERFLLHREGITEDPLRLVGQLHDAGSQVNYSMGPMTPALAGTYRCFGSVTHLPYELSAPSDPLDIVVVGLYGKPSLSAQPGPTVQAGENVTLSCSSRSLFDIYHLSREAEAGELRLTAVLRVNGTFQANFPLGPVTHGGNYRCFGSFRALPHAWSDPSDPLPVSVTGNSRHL
T20 sequence (chain, as listed by the source): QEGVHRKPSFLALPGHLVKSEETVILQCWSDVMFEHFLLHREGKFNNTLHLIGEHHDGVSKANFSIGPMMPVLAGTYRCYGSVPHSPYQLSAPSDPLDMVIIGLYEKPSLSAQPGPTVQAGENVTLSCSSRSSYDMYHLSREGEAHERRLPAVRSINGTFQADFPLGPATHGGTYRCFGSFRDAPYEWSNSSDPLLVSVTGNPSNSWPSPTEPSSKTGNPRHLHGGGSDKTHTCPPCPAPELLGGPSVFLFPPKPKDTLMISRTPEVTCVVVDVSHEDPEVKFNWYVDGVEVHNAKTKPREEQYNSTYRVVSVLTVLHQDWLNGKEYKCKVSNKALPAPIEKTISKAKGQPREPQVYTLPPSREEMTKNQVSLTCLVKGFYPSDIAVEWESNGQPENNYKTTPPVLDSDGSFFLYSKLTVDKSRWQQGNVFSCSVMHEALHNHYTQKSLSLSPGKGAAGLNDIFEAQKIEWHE
T6 sequence (O76036 22-258 limits assumed): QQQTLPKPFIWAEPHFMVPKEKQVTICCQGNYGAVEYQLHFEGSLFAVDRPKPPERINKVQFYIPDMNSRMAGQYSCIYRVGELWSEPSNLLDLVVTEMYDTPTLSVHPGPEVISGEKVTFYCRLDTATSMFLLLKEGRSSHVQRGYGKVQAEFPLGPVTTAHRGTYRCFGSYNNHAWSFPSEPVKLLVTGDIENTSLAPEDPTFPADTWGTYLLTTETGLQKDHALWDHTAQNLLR
T13 sequence (P43629 22-340 limits assumed): as the sequence (Q14943 22-340 limits assumed, change not shown) above, with V47I, G58S, M92V, R136K, W138G, S163P, R166L, L199P, L315P counted along it
T23 sequence (chain, as listed by the source): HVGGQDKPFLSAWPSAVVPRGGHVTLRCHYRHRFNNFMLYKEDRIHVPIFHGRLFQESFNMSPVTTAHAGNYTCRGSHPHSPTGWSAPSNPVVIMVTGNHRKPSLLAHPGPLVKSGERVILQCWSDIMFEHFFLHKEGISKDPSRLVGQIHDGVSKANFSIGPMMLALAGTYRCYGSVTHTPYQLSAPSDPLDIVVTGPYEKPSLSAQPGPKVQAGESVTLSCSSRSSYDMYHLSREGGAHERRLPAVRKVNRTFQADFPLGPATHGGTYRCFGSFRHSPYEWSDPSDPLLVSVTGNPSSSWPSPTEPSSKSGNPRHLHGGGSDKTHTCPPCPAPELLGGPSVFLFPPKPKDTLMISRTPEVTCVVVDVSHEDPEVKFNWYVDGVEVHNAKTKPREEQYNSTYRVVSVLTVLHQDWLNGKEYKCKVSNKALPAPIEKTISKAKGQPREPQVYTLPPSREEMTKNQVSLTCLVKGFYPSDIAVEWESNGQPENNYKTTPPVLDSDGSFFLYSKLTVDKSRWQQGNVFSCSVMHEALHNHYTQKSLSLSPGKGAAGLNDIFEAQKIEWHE
Chain of CD64 (Fc, R&D system 1257-FC-050) (P12314 16-288 limits assumed): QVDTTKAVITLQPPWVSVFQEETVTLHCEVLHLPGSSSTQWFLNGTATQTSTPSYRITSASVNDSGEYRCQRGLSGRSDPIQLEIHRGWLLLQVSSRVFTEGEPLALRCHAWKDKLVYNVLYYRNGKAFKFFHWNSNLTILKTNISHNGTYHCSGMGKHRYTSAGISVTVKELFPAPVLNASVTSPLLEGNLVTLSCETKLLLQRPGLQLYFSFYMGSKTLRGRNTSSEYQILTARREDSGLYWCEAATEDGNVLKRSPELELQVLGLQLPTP
T1 sequence (P43626 22-245 limits assumed): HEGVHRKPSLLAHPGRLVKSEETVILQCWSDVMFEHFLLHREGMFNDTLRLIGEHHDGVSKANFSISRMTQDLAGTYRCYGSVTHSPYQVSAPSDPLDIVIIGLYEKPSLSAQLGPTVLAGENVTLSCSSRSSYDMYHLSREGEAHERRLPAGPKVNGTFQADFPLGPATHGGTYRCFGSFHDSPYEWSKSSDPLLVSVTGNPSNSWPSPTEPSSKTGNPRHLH
T15 sequence (Q07444 94-240 limits assumed): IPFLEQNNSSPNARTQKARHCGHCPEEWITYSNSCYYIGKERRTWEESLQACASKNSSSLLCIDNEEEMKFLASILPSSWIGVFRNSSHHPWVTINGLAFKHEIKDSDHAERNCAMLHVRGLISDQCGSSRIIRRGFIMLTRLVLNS
Chain of CD16b (Fc, R&D system 1597-FC-050) (O75015 17-200 limits assumed): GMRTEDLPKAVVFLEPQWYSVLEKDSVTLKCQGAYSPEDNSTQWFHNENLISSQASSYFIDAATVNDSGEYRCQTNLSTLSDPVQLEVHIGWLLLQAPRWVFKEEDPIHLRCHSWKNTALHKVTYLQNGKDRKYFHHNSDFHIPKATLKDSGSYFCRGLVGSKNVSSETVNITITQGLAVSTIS
T24 sequence (P43627 other isoform, or with tags, fused parts or gaps): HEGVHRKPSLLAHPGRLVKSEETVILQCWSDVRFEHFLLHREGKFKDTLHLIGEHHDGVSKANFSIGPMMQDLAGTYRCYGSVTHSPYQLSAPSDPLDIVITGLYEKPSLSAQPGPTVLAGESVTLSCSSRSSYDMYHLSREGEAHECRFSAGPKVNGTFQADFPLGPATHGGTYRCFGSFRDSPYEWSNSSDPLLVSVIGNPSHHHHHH
T18 sequence (Q99706 24-242 limits assumed): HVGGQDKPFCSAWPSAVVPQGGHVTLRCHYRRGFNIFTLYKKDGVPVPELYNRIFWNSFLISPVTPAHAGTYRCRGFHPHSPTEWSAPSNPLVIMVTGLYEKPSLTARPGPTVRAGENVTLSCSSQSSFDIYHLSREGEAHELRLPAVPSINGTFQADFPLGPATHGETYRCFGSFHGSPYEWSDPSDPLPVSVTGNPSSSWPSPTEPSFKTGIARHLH
Chain of KIR2DS3 (Fc, prepared in-house) (Q14952 22-245 limits assumed): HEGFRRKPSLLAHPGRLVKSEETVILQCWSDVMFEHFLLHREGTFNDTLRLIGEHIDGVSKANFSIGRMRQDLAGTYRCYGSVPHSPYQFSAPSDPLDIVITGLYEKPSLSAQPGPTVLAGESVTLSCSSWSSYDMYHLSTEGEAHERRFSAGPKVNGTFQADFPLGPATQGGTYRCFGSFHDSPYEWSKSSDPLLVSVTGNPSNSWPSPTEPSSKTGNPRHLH
T8 sequence (Q8N109 22-238 limits assumed): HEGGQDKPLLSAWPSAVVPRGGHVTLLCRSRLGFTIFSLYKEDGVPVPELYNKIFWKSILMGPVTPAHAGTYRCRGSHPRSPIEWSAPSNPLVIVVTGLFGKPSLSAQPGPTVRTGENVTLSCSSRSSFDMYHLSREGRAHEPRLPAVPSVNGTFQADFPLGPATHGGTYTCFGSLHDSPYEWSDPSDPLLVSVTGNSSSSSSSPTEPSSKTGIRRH
T5 sequence (P26715 94-233 limits assumed): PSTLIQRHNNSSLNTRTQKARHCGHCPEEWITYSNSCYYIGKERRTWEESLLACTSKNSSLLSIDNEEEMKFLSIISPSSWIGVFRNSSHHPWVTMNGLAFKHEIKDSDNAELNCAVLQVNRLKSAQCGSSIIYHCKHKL
T19 sequence (P26717 94-231 limits assumed): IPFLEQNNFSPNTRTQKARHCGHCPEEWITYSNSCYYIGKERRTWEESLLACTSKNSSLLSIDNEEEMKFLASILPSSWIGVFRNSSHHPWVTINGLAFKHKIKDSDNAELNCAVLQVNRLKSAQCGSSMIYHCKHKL
T9 sequence (Q8NHL6 24-458 limits assumed): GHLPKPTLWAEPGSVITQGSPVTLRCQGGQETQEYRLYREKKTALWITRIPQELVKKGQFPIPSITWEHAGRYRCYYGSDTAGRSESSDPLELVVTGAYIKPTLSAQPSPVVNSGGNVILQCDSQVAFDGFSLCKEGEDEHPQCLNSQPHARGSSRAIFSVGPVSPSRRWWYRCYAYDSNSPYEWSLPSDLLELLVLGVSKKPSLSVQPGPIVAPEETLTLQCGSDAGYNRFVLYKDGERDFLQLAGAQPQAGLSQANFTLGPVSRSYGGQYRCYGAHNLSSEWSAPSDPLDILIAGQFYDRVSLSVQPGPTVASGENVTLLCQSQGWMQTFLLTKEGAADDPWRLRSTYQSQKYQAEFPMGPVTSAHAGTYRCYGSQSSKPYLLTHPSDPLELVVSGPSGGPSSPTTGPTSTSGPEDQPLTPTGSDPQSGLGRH

B1: membrane-type a2DL2/3-DS10 scFv (scFv)
scFv: DYKDDDDKGSGQVQLVQSGAEVKKPGSSVKVSCKASGGTFSSFAISWVRQAPGQGLEWMGGIIPIFGTANYAQKFQGRVTITADESTSTAYMELSSLRSEDTAVYYCARVSGTTGGYYYGMDVWGQGTLVTVSSGGGGSGGGGSGGGGSAIRMTQSPSSVSASVGDRVTITCRASQGIGNWLAWYQQKPGRAPKLLISTASSLQSGVPSRFSGGGSGRGFTLTISSLQLEDFATYYCQQSYITPWTFGQGTKVEIKALSNSIMYFSHFVPVFLPAKPTTTPAPRPPTPAPTIASQPLSLRPEACRPAAGGAVHTRGLDFACDIYIWAPLAGTCGVLLLSLVITLYCNH
notes: On K562 cells; also called a2DL2/3-DS10 WT scFv
On to B1, for which the binding result in assay [1], in assay [2], in assay [3], in assay [4], in assay [5] and in [6] was “no binding (tested: 0.1 µM)” in each case. Also, the binding result in assay [7], in assay [8], in assay [9], in assay [10], in assay [11] and in [12] was “no binding (tested: 0.1 µM)” in each case. Besides, the binding result in assay [13], in assay [14], in [15], in assay [16], in assay [17] and in assay [18] was “no binding (tested: 0.1 µM)” in each case. For the same molecule, the binding result in [19], in assay [20], in assay [21], in [22], in assay [23] and in assay [24] was “no binding (tested: 0.1 µM)” throughout. Moreover, the binding result in [25] and in assay [26] was “no binding (tested: 0.1 µM)” throughout.

B2: membrane-type a3DL1-DS6 scFv (scFv)
scFv: DYKDDDDKGSGQMQLVQSGAEVKKPGESLKISCKGSGYSFTSYWIGWVRQMPGKGPEWMGIIYPGDSYTNYSPSFQGHVTISADKSISTAYLQWSSLKASDTAMYYCARLAPTVEDAFDIWGQGTLVTVSSGGGGSGGGGSGGGGSQSVLTQPPSVSEAPGQRVTISCTGSSSNIGAGYDVHWYQQLPGTAPKLLIYGNSNRPSGVPDRFSGSKSGTSASLAITGLQAEDEADYYCQSYDSSLSEEVFGTGTKVTVLALSNSIMYFSHFVPVFLPAKPTTTPAPRPPTPAPTIASQPLSLRPEACRPAAGGAVHTRGLDFACDIYIWAPLAGTCGVLLLSLVITLYCNH
notes: On K562 cells
Consider B2, for which the results for the binding result in assay [27] and in assay [28] were “binds” and “no binding (tested: 0.1 µM)”, respectively.

B3: Fab fragment of a2DL2/3-DS10 (Fab, V domains shown)
VH: QVQLVQSGAEVKKPGSSVKVSCKASGGTFSSFAISWVRQAPGQGLEWMGGIIPIFGTANYAQKFQGRVTITADESTSTAYMELSSLRSEDTAVYYCARVSGTTGGYYYGMDVWGQGTLVTVSS
VL: AIRMTQSPSSVSASVGDRVTITCRASQGIGNWLAWYQQKPGRAPKLLISTASSLQSGVPSRFSGGGSGRGFTLTISSLQLEDFATYYCQQSYITPWTFGQGTKVEIKV
notes: Signal peptides left out; also called a2DL2/3-DS10 Fab; 61_3092_02_F10_Fab
Turning to B3, in assay [29], the binding result is given as “binds”.
